Laboratory results from US20240150411A1 (University of Washington, published 2024).

Target: T1, I53-50A trimer
T1 construct: also called trimeric I53-50A
T1 chain: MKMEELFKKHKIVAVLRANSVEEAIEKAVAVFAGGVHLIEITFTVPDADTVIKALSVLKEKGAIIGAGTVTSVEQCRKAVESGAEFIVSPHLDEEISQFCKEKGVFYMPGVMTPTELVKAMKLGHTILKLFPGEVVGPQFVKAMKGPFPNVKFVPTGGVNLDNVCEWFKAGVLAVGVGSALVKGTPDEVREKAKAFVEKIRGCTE
Assay: in vitro co-assembly into partial valency nanostructures, purified by size exclusion chromatography

B1: I53-50B.4PosT1 pentamer (designed binder)
chain: MNQHSHKDHETVRIAVVRARWHAEIVDACVSAFEAAMRDIGGDRFAVDVFDVPGAYEIPLHARTLAETGRYGAVLGTAFVVNGGIYRHEFVASAVINGMMNVQLNTGVPVLSAVLTPHNYDKSKAHTLLFLALFAVKGMEAARACVEILAAREKIAA
notes: Expressed and purified as in Bale et al; also called I53-50B.4PT1; I53-50B.4PosT1 pentamers
B1: binds.
